The supplement of paper PMC7877785
± gives the uncertainty stated by the source.

Assay: self-splicing fitness, log relative to wild type (ln ratio); higher = more splicing; Tetrahymena group I intron in knt gene, E. coli kanamycin selection, DiMSum; sequences stand for … in CUCUCU…GGAGGGAAAAGUUAUCAGGCAUGCACCUGGUAGCUAGUCUUUAAACCAAUAGAUUGCAUCGGUUUAAAAGGCAAGACCGUCAAAUUGCGGGAAAGGGGUCAACAGCCGUUCAGUACCAAGUCUCAGGGGAAACUUUGAGAUGGCCUUGCAAAGGGUAUGGUAAUAAGCUGACGGACAUGGUCCUAACCACGCAGCCAAGUCCUAAGUCAACAGAUCUUCUGUUGAUAUGGAUGCAGUUCACAGACUAAAUGUCGGUCGGGGAAGAUGUAUUCUUCUCAUAAGAUAUAGUCGGACCUCUCCUUAAUGGGAGCUAGCGGAUGAAGUGAUGCAACACUGGAGCCGCUGGGAACUAAUUUGUAUGCGAAAGUAUAUUGAUUAGUUUUGGAGUACUCGUGGUCG
In short: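 Colonies from six replicate transformations of E. coli BL21(DE3) were pooled and amplicon-sequenced on an Illumina HiSeq 2500. The library placed an intron with all eight P1ex-region nucleotides randomised inside the knt kanamycin-resistance gene on pET-22b(+), and cells grew overnight at 37°C or 30°C on LB agar with or without 25 μg/mL kanamycin (plus 100 μg/mL carbenicillin, 50 μM IPTG, 0.2% rhamnose). Fitness is the DiMSum error-weighted combination of wild-type-normalised replicate fold changes, kanamycin versus none.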

Row | Sequence | self-splicing fitness (ln) (37 °C) | self-splicing fitness (ln) (30 °C)
1 | CGGGAGCAAUAUUACGGUCC | -2.32 ± 0.24 | 
2 | CGGGAGCAAUAUUACGGUUC | -1.95 ± 0.35 | -3.39 ± 0.25
3 | CGGGAGCAAUAUUACGUAAU | -1.95 ± 0.28 | 
4 | CGGGAGCAAUAUUACGUACA |  | -3.72 ± 0.35
5 | CGGGAGCAAUAUUACGUAUU | -2.31 ± 0.37 | -4.48 ± 0.41
6 | CGGGAGCAAUAUUACGUGAG | -0.865 ± 0.11 | -1.03 ± 0.11
7 | CGGGAGCAAUAUUACGUGCU | -2.87 ± 0.22 | -3.7 ± 0.21
8 | CGGGAGCAAUAUUACGUGUA | -1.47 ± 0.22 | -4.05 ± 0.39
9 | CGGGAGCAAUAUUACGUUUA | -1.8 ± 0.28 | -3.47 ± 0.31
10 | CGGUAGCAAUAUUACGAAAA | -2.77 ± 0.39 | -2.62 ± 0.35
11 | CGGUAGCAAUAUUACGAAGG | 0.565 ± 0.16 | -0.178 ± 0.15
12 | CGGUAGCAAUAUUACGAGAA | -1.85 ± 0.33 | -2.77 ± 0.32
13 | CGGUAGCAAUAUUACGAGGG | -2.96 ± 0.25 | -3.72 ± 0.36
14 | CGGUAGCAAUAUUACGCACA | -0.0778 ± 0.19 | -0.755 ± 0.26
15 | CGGUAGCAAUAUUACGCCAG | -1.03 ± 0.14 | -0.874 ± 0.092
16 | CGGUAGCAAUAUUACGCCCC | -0.667 ± 0.29 | -1.29 ± 0.24
17 | CGGUAGCAAUAUUACGCCGG | -0.573 ± 0.12 | -1.45 ± 0.078
18 | CGGUAGCAAUAUUACGCGUC | -1.81 ± 0.39 | 
19 | CGGUAGCAAUAUUACGGAAG | -0.67 ± 0.14 | -0.936 ± 0.13
20 | CGGUAGCAAUAUUACGGAUG | 0.221 ± 0.096 | -0.393 ± 0.063
21 | CGGUAGCAAUAUUACGGCUG | -1.05 ± 0.16 | -4.13 ± 0.25
22 | CGGUAGCAAUAUUACGGGGC | -2.39 ± 0.34 | 
23 | CGGUAGCAAUAUUACGGUAG | -0.0774 ± 0.089 | -0.557 ± 0.071
24 | CGGUAGCAAUAUUACGUCCU | 0.121 ± 0.08 | -0.294 ± 0.063
25 | CGGUAGCAAUAUUACGUUAU |  | -2.66 ± 0.25
26 | CGUAAGCAAUAUUACGAAGG | -1.16 ± 0.2 | -1.78 ± 0.12

Row | Sequence | self-splicing fitness (ln) (37 °C) | self-splicing fitness (ln) (30 °C)
27 | CGUAAGCAAUAUUACGACAC | -2.55 ± 0.16 | -2.84 ± 0.14
28 | CGUAAGCAAUAUUACGACUU | -1.35 ± 0.22 | -3.09 ± 0.23
29 | CGUAAGCAAUAUUACGAGAU | -2.55 ± 0.41 | -4.04 ± 0.47
30 | CGUAAGCAAUAUUACGAUAA | -1.86 ± 0.24 | -2.66 ± 0.23
31 | CGUAAGCAAUAUUACGAUGC | -2.04 ± 0.26 | 
32 | CGUAAGCAAUAUUACGCAUC | -2.03 ± 0.26 | 
33 | CGUAAGCAAUAUUACGCCAC | -0.936 ± 0.3 | -2.55 ± 0.42
34 | CGUAAGCAAUAUUACGCCGG | -1.04 ± 0.14 | -1.38 ± 0.11
35 | CGUAAGCAAUAUUACGCCUU | -2.05 ± 0.31 | -2.51 ± 0.23
36 | CGUAAGCAAUAUUACGCUCU | -1.35 ± 0.2 | -0.698 ± 0.17
37 | CGUAAGCAAUAUUACGCUGA | -1.42 ± 0.18 | -3.48 ± 0.42
38 | CGUAAGCAAUAUUACGGAAG | -1.41 ± 0.17 | -2.64 ± 0.19
39 | CGUAAGCAAUAUUACGGAGC |  | -4.17 ± 0.39
40 | CGUAAGCAAUAUUACGGCAG | -0.781 ± 0.095 | -0.537 ± 0.091
41 | CGUAAGCAAUAUUACGGCGA | -2.02 ± 0.25 | -2.31 ± 0.2
42 | CGUAAGCAAUAUUACGGGGA | -1.73 ± 0.14 | -3.42 ± 0.22
43 | CGUAAGCAAUAUUACGGGGG | -2.69 ± 0.19 | -2.61 ± 0.14
44 | CGUAAGCAAUAUUACGGUAU | -2.56 ± 0.26 | -3.71 ± 0.37
45 | CGUAAGCAAUAUUACGGUUC | -2.59 ± 0.26 | 
46 | CGUAAGCAAUAUUACGUAAU | -2.64 ± 0.18 | -3.23 ± 0.16
47 | CGUAAGCAAUAUUACGUCAA | -1.56 ± 0.24 | -2.62 ± 0.26
48 | CGUAAGCAAUAUUACGUCAC | -2.59 ± 0.44 | 
49 | CGUAAGCAAUAUUACGUUAA | -2.47 ± 0.29 | -3.03 ± 0.23
50 | CGUAAGCAAUAUUACGUUUC | -1.92 ± 0.2 | -3.97 ± 0.24
51 | CGUAAGCAAUAUUACGUUUG | -0.438 ± 0.1 | -1.2 ± 0.08
